Laboratory results as given in IntAct's records for PubMed 34948388.

B1: Multifunctional methyltransferase subunit TRM112-like protein (Homo sapiens), Q9UI30 (parent)
chain: MKLLTHNLLSSHVRGVGSRGFPLRLQATEVRICPVEFNPNFVARMIPKVEWSAFLEAADNLRLIQVPKGPVEGYEENEEFLRTMHHLLLEVEVIEGTLQCPESGRMFPISRGIPNMLLSEEETES
partner: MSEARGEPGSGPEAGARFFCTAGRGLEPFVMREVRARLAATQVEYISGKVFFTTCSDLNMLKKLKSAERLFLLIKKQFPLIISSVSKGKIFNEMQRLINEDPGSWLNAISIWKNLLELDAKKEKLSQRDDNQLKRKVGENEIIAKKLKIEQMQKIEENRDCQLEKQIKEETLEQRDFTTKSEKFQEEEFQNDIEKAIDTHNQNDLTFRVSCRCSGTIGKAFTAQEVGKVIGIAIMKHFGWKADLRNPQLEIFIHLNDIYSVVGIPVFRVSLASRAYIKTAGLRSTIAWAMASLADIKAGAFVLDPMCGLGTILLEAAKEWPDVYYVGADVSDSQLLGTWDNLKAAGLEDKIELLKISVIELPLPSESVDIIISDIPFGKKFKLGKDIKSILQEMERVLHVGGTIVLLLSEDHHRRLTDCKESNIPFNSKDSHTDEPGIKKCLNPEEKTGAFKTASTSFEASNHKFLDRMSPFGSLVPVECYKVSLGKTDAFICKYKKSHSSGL
B2: Multifunctional methyltransferase subunit TRM112-like protein (Homo sapiens), Q9UI30 (parent)
chain: B1 chain
partner: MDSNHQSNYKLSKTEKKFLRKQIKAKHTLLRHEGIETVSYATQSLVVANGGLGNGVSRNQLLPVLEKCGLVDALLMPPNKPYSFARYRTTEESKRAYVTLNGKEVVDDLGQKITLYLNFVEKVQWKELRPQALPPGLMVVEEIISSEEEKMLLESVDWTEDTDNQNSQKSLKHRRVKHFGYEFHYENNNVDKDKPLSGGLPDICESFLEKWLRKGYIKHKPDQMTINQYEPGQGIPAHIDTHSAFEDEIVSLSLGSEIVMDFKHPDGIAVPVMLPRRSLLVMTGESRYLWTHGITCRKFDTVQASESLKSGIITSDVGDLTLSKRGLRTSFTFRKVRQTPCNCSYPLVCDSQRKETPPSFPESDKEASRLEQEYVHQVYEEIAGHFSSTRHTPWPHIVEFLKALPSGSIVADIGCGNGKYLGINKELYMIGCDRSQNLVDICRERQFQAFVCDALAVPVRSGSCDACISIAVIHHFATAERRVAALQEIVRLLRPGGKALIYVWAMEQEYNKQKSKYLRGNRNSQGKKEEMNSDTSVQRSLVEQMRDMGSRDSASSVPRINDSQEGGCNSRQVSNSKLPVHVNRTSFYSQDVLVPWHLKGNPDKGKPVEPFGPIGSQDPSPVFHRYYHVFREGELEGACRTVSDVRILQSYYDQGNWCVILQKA

Variants of: B1
Conditions: with thum2_human THUMPD2, Q9BTF0

effect of a mutation on the interaction | Variant
disrupting interaction strength | MKLLTHNLLSSHVRGVGSRGFPLRLQATEVRICPVEFNPNFVARMIPKVEWSAFLEAADNLRLIQVPKGPVEGYEENEEFLRTMHHLLLEVEVIEGTLQCPESGRMFPISRGAPNMLLSEEETES [I113A]

Variants of: B2
Conditions: with alkb8_human ALKBH8, Q96BT7

effect of a mutation on the interaction | Variant
with no effect | MKLLTHNWLSSHVRGVGSRGFPLRLQATEVRICPVEFNPNFVARMIPKVEWSAFLEAADNLRLIQVPKGPVEGYEENEEFLRTMHHLLLEVEVIEGTLQCPESGRMFPISRGIPNMLLSEEETES [L8W]
with no effect | MKLLTHNLLFSHVRGVGSRGFPLRLQATEVRICPVEFNPNFVARMIPKVEWSAFLEAADNLRLIQVPKGPVEGYEENEEFLRTMHHLLLEVEVIEGTLQCPESGRMFPISRGIPNMLLSEEETES [S10F]
disrupting interaction strength | MKLLAHNLLSSHVRGVGSRGFPLRLQATEVRICPVEFNPNFVARMIPKVEWSAFLEAADNLRLIQVPKGPVEGYEENEEFLRTMHHLLLEVEVIEGTLQCPESGRMFPISRGIPNMLLSEEETES [T5A]
with no effect | MKLLTHNLLSSHVRGVGSRGFPLRLQATEVRICPVEFNPNFVARMIPKVAWSAFLEAADNLRLIQVPKGPVEGYEENEEFLRTMHHLLLEVEVIEGTLQCPESGRMFPISRGIPNMLLSEEETES [E50A]
decreasing interaction strength | MKLLTHNLLSSHVRGVGSRGFPLRLQATEVRICPVEFNPNFVARMIPKVEWSAFLEAADNLRLIQVPKGPVEGYEENEEFLRTMHHLLLEVAVIEGTLQCPESGRMFPISRGIPNMLLSEEETES [E92A]
with no effect | MKLLTHNLLSSHVRGVGSRGFPLRLQATEVRICPVEFNPNFVARMIPAVEWSAFLEAADNLRLIQVPKGPVEGYEENEEFLRTMHHLLLEVEVIEGTLQCPESGRMFPISRGIPNMLLSEEETES [K48A]
with no effect | MKLLTHNLLSSHVRGVGSRGFPLRLQATEVRICPVEFNPNFVARMIPKVEWSAFLEAADNLRLIQVPKGPVEGYEENEEFLRTMHHLLLEVEVIEGTLQCPESGRMFPISRGAPNMLLSEEETES [I113A]
decreasing interaction strength | MKLLTHNLLSSHVRGVGSRGFPLRLQATEVRICPVEFNPNFVARMIPKVEWSAFLEAADNLRLIQVPKGPVEGYEENEEFLRTMHHLLLEVEVIEGTLQCPESGRMAPISRGIPNMLLSEEETES [F107A]
disrupting interaction strength | MKLLTHNLLSSHVRGVGSRGFPLRLQATEVRICPVEFNPNFVARAIPKVEWSAFLEAADNLRLIQVPKGPVEGYEENEEFLRTMHHLLLEVEVIEGTLQCPESGRMFPISRGIPNMLLSEEETES [M45A]
disrupting interaction strength | MKLLTHNLLSSHVRGVGSRGFPLRLQATEVRICPVEFNPNFVARMIPAVEWSAFLEAADNLRLIQVPKGPVEGYEENEEFLRTMHHLLLEVAVIEGTLQCPESGRMFPISRGIPNMLLSEEETES [K48A;E92A]
